Here are results for 16 molecules from patent US20200140562A1 (Innovent, published 2020).

Assay [1] deals with T1, Human biotinylated OX40-His monomer (human, UniProt P43489 29-216, limits assumed, biotinylated).
T1 construct: Bought from Acro Biosystems; also called biotin-OX-40 monomer; not shown: His tag
T1 sequence (looked up): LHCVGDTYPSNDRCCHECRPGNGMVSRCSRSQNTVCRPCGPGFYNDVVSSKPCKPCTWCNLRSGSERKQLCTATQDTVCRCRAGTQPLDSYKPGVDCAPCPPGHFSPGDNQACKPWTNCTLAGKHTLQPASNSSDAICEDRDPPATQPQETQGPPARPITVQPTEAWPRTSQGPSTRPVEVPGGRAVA
The experiment in a line: MSD-SET, biotinylated OX40-His monomer with Fab.

Assay [2] addresses T2, human OX40_Fc (R&D Systems) (human, UniProt P43489 29-216).
T2 construct: Bought
The experiment in a line: BLI, hOX40-Fc on tip, Fab 200 nM, monovalent.

Assay [3] deals with T2, human OX40_Fc (R&D Systems). The experiment in a line: BLI, hOX40-Fc on tip, Fab 200 nM, monovalent. This is another data set of the same source.
For assay [4] the target is unchanged. Briefly: BLI, IgG1 on tip, hOX40-Fc 50 nM, avid.
In assay [5] the target is T3, human OX40 on cells (CHO-hOX40, 293HEK-hOX40, Jurkat-hOX40, activated primary CD4+ T cells) (human, UniProt P43489 29-277).
T3 construct: whole, on cells; The cell type is told in each assay; also called CHO-OX40
T3 sequence (looked up): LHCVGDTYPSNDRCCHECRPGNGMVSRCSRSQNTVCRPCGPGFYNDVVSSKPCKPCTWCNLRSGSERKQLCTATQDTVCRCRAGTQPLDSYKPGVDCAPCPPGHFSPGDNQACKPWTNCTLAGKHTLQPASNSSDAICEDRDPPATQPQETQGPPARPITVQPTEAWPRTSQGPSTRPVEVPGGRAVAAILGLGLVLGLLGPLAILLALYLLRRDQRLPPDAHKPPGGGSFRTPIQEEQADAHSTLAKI
Briefly: flow cytometry, CHO-hOX40, 100 nM.

Assay [6] concerns the target T4, cyno OX40_Fc (Acro Biosystems) (cyno).
T4 construct: Bought
The experiment in a line: BLI, IgG1 on tip, cyno OX40-Fc 100 nM, avid.

The target of assay [7] is T3, human OX40 on cells (CHO-hOX40, …). The experiment in a line: flow cytometry, MFI on CHO-hOX40 over wild-type CHO.

B1: ADI-25653, Fab (Fab, V domains shown)
VH: QVQLVESGGGVVQPGRSLRLSCAASGFTFVSYNMHWVRQAPGKGLEWVAVIMYDGSAKYYADSVKGRFTISRDNSKNTLYLQMNSLRAEDTAVYYCARGRPWYSETGTSAFDIWGQGTMVTVSS
VL: DIQMTQSPSSLSASVGDRVTITCQASQDISNYLNWYQQKPGKAPKLLIYDASNLETGVPSRFSGSGSGTDFTFTISSLQPEDIATYYCQQSDHYPTFGGGTKVEIKR
For the molecule B1, the Kd in assay [1] stood at 0.086 nM; in assay [2], 1.63 nM.

B2: ADI-20113, Fab (Fab, V domains shown)
VH: QVQLVESGGGVVQPGRSLRLSCAASGFTFSSYGMHWVRQAPGKGLEWVAVISYDGSNKYYADSVKGRFTISRDNSKNTLYLQMNSLRAEDTAVYYCARGRPWYSETGTSAFDIWGQGTMVTVSS
VL: EIVMTQSPATLSVSPGERATLSCRASQSVSSNLAWYQQKPGQAPRLLIYSASTRATGIPARFSGSGSGTEFTLTISSLQSEDFAVYYCQQHNVYPPYTFGGGTKVEIKR
Consider B2, for which the affinity in assay [3], expressed as Kd, was 182 nM.

B3: ADI-25654, Fab (Fab, V domains shown)
VH: QVQLVESGGGVVQPGRSLRLSCAASGFTFRSYDMHWVRQAPGKGLEWVAYIAYDGSNKYYADSVKGRFTISRDNSKNTLYLQMNSLRAEDTAVYYCARGRPWYSETGTSAFDIWGQGTMVTVSS
VL: DIQMTQSPSSLSASVGDRVTITCQASQDISNYLNWYQQKPGKAPKLLIYDASNLETGVPSRFSGSGSGTDFTFTISSLQPEDIATYYCQQSDHYPTFGGGTKVEIKR
Turning to B3, the Kd in assay [1] worked out at 0.18 nM; in assay [2], 1.8 nM.

B4: ADI-25650, Fab (Fab, V domains shown)
VH: QVQLVESGGGVVQPGRSLRLSCAASGFTFSVYNMHWVRQAPGKGLEWVAVIAYDGSAKYYADSVKGRFTISRDNSKNTLYLQMNSLRAEDTAVYYCARGRPWYSETGTSAFDIWGQGTMVTVSS
VL: DIQMTQSPSSLSASVGDRVTITCQASQDISNYLNWYQQKPGKAPKLLIYDASNLETGVPSRFSGSGSGTDFTFTISSLQPEDIATYYCQQSDHYPTFGGGTKVEIKR
As for B4, the figures for the Kd in assay [1] and in assay [2] were 0.14 nM and 1.04 nM, respectively.

B5: ADI-25651, Fab (Fab, V domains shown)
VH: QVQLVESGGGVVQPGRSLRLSCAASGFTFSSRNMHWVRQAPGKGLEWVAVIAYDGSLKYYADSVKGRFTISRDNSKNTLYLQMNSLRAEDTAVYYCARGRPWYSETGTSAFDIWGQGTMVTVSS
VL: DIQMTQSPSSLSASVGDRVTITCQASQDISNYLNWYQQKPGKAPKLLIYDASNLETGVPSRFSGSGSGTDFTFTISSLQPEDIATYYCQQSDHYPTFGGGTKVEIKR
As to B5, the Kd is 0.17 nM in assay [1] and 2.32 nM in assay [2].

B6: ADI-20112, Fab (Fab, V domains shown)
VH: QVQLVESGGGVVQPGRSLRLSCAASGFTFSSYGMHWVRQAPGKGLEWVAVISYDGSNKYYADSVKGRFTISRDNSKNTLYLQMNSLRAEDTAVYYCARGRPWYSETGTSAFDIWGQGTMVTVSS
VL: DIQMTQSPSSLSASVGDRVTITCQASQDISNYLNWYQQKPGKAPKLLIYDASNLETGVPSRFSGSGSGTDFTFTISSLQPEDIATYYCQQSDHYPTFGGGTKVEIKR
For the molecule B6, the values for the Kd in assay [3] and in assay [2] were 70.6 nM and 63.9 nM, respectively.

B7: ADI-25652, Fab (Fab, V domains shown)
VH: QVQLVESGGGVVQPGRSLRLSCAASGFTFVSYNMHWVRQAPGKGLEWVAVIAYDGSVKYYADSVKGRFTISRDNSKNTLYLQMNSLRAEDTAVYYCARGRPWYSETGTSAFDIWGQGTMVTVSS
VL: DIQMTQSPSSLSASVGDRVTITCQASQDISNYLNWYQQKPGKAPKLLIYDASNLETGVPSRFSGSGSGTDFTFTISSLQPEDIATYYCQQSDHYPTFGGGTKVEIKR
On to B7, for which the Kd turned out to be 0.15 nM in assay [1] and 1.31 nM in assay [2].

B8: ADI-20118, Fab (Fab, V domains shown)
VH: QVQLVQSGAEVKKPGASVKVSCKASGYTFTSYAISWVRQAPGQGLEWMGWISAYNGNTNYAQKLQGRVTMTTDTSTSTAYMELRSLRSDDTAVYYCARSGGGSGPNWFDPWGQGTLVTVSS
VL: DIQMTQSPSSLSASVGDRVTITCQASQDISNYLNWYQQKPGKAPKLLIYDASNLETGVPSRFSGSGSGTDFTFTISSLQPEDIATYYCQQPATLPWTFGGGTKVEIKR
In assay [3], B8 showed a Kd of 137 nM.

B9: ADI-20051, Fab (Fab, V domains shown)
VH: QVQLQQWGAGLLKPSETLSLTCAVYGGSFSGYYWSWIRQPPGKGLEWIGEIDHSGSTNYNPSLKSRVTISVDTSKNQFSLKLSSVTAADTAVYYCARDGGGGYASPFDYWGQGTLVTVSS
VL: EIVMTQSPATLSVSPGERATLSCRASQSVSSNLAWYQQKPGQAPRLLIYGASTRATGIPARFSGSGSGTEFTLTISSLQSEDFAVYYCQQYHAWPPTFGGGTKVEIKR
As for B9, the affinity in assay [3], expressed as Kd, was 25.8 nM.

B10: ADI-20065, Fab (Fab, V domains shown)
VH: QLQLQESGPGLVKPSETLSLTCTVSGGSISSSSYYWGWIRQPPGKGLEWIGSIYYSGSTYYNPSLKSRVTISVDTSKNQFSLKLSSVTAADTAVYYCARDPGYSASPNWFDPWGQGTLVTVSS
VL: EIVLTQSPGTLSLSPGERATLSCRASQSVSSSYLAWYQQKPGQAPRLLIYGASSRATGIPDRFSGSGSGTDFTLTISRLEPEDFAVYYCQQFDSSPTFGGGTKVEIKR
B10 came in with a Kd in assay [3] of 10.8 nM.

B11: ADI-23518, IgG1 format (antibody, V domains shown)
VH: QVQLQESGPGLVKPSQTLSLTCTVSGGSISSGASYWSWIRQHPGKGLEWIGYIYYSGETYYNPSLKSRVTISVDTSKNQFSLKLSSVTAADTAVYYCARDVGYPHYYGMDVWGQGTTVTVSS
VL: EIVLTQSPGTLSLSPGERATLSCRASQSVSSSYLAWYQQKPGQAPRLLIYGASSRATGIPDRFSGSGSGTDFTLTISRLEPEDFAVYYCQQSERSPFTFGGGTKVEIKR
notes: Made in yeast
For B11, the values for the Kd in assay [4] and in assay [6] were 0.297 nM and 1.08 nM, respectively. Moreover, in assay [5], the “CHO-OX40 binding intensity (MFI)” value worked out at 173000 MFI. Further, the Fold difference in assay [7] turned out to be 1480 fold.

B12: ADI-23519, Fab (Fab, V domains shown)
VH: QVQLQESGPGLVKPSQTLSLTCTVSGGSISSGSSYWSWIRQHPGKGLEWIGYIYMSGETYYNPSLKSRVTISVDTSKNQFSLKLSSVTAADTAVYYCARDVGYPHYYGMDVWGQGTTVTVSS
VL: EIVLTQSPGTLSLSPGERATLSCRASQSVSSSYLAWYQQKPGQAPRLLIYGASSRATGIPDRFSGSGSGTDFTLTISRLEPEDFAVYYCQQSERSPFTFGGGTKVEIKR
Consider B12, for which, in assay [2], binding was put at a Kd of 5.36 nM.

B13: ADI-20066, Fab (Fab, V domains shown)
VH: QLQLQESGPGLVKPSETLSLTCTVSGGSISSSSYYWGWIRQPPGKGLEWIGSIYYSGSTYYNPSLKSRVTISVDTSKNQFSLKLSSVTAADTAVYYCARDPGYSASPNWFDPWGQGTLVTVSS
VL: EIVLTQSPGTLSLSPGERATLSCRASQSVSSSFLAWYQQKPGQAPRLLIYGASSRATGIPDRFSGSGSGTDFTLTISRLEPEDFAVYYCQQYDVFPITFGGGTKVEIKR
The molecule B13 displayed a dissociation constant Kd in assay [3] of 21.8 nM.

B14: ADI-23518, Fab (Fab, V domains shown)
VH: QVQLQESGPGLVKPSQTLSLTCTVSGGSISSGASYWSWIRQHPGKGLEWIGYIYYSGETYYNPSLKSRVTISVDTSKNQFSLKLSSVTAADTAVYYCARDVGYPHYYGMDVWGQGTTVTVSS
VL: EIVLTQSPGTLSLSPGERATLSCRASQSVSSSYLAWYQQKPGQAPRLLIYGASSRATGIPDRFSGSGSGTDFTLTISRLEPEDFAVYYCQQSERSPFTFGGGTKVEIKR
As for B14, in assay [2], the Kd turned out to be 7.16 nM.

B15: ADI-23515, Fab (Fab, V domains shown)
VH: QVQLQESGPGLVKPSQTLSLTCTVSGGSIRSGAYYWSWIRQHPGKGLEWIGYIYYDGQTYYNPSLKSRVTISVDTSKNQFSLKLSSVTAADTAVYYCARDVGYPHYYGMDVWGQGTTVTVSS
VL: EIVLTQSPGTLSLSPGERATLSCRASQSVSSSYLAWYQQKPGQAPRLLIYGASSRATGIPDRFSGSGSGTDFTLTISRLEPEDFAVYYCQQSERSPFTFGGGTKVEIKR
B15: the Kd is 0.16 nM in assay [1] and 3.79 nM in assay [2].

B16: ADI-23519, IgG1 format (antibody, V domains shown)
VH: QVQLQESGPGLVKPSQTLSLTCTVSGGSISSGSSYWSWIRQHPGKGLEWIGYIYMSGETYYNPSLKSRVTISVDTSKNQFSLKLSSVTAADTAVYYCARDVGYPHYYGMDVWGQGTTVTVSS
VL: EIVLTQSPGTLSLSPGERATLSCRASQSVSSSYLAWYQQKPGQAPRLLIYGASSRATGIPDRFSGSGSGTDFTLTISRLEPEDFAVYYCQQSERSPFTFGGGTKVEIKR
notes: Made in yeast
Turning to B16, the Kd is 0.255 nM in assay [4] and 1.1 nM in assay [6].
